Test results: article PMC7911018, “Effect of Humanizing Mutations on the Stability of the Llama Single-Domain Variable Region” (Biomolecules, 2021)

Biological target: T1, HER2 ectodomain-Fc (96 kDa) (Homo sapiens, UniProt P04626)
T1 construct: human epidermal growth factor receptor 2 (HER2), ectodomain; also called extracellular domain of HER2; human epidermal growth factor receptor 2
Test: SPR; Biacore T100, 25 °C; HER2 ectodomain-Fc amine-coupled on a CM5 chip at 1270 RU; VHHs injected as analytes at 7 concentrations between 250 and 3.5 nM in 20 mM Hepes, 150 mM NaCl, 3 mM EDTA, 0.005% Tween 20, pH 7.4; 1:1 Langmuir fit
Conditions: both partners purified

binding result: binds
B1: VHH A10 (anti-HER2 nanobody) (VHH)
VHH: DVQLQASGGGFVQPGGSLRLSCAASGATSNISNMGWFRQAPGKEREFVSAISRAESRPLYYADSVKGRFTISRDNSKNTVYLQMNSLRAEDTATYYCAYMPLVRHKAYWGQGTQVTVSS
notes: anti-HER2 VHH from a synthetic library with camelid FW2 hallmarks FERF; also called A10 wt; source: expressed in bacteria, purified (IMAC, SEC)
